Source: the DeepSol protein solubility set

Test: soluble on expression in E. coli; label from the status in PepcDB or PDB records

| Sequence | soluble on expression in E. coli |
| --- | --- |
| MKSSVEKLSETRVKLNVEVPFEELKPEIDQAYKALAQQITIPGFRRGKAPRQLIDARIGRGAVLEQVINDMLPTRYQQVVEENELVVLGQPHIDITKLEDNEVVEFTAEVDVRPEITVPDFSAFAVEVPALKSNDEAIDAQIDKLRERFGELKDTKRKLKTDDFAIIDIEAAIDGEKLEEATTEGMSYQVGAGDLIDGLDTALRGLKAGESAEFTTTLKAGEHEGKEAAVTVTVQQTKERKLPELDEEFVQTASEFDTVEELRESIAEQVAEQAKAEQATAIRDEVLKAALAEATFELPEGVVEDQIHAQLHQLLNQVGGDEAALNAALEAQGTSREQFDADNRKNSEEAVRTQLFLDALAEQEQPEVSQQELTDHILFTAQSYGMDPNQFITQLQQSGQIGNLFSDVRRGKALAAAICRVSVKDDEGKAVDPSEYFGEEEESAEESE | soluble |
| MKSTEVKGSVSDATDFLVPLPPKSVNEKILNPAILTLFIPQIKAVSSIRERIYLLRIKWVISWDTPLTVYSVKLDDNRYIARYYASQKIPLFVVSFGFDFYIMSEGTGSRIKMKEWYKGPFKQLAKGEIEKHLKKAKEVLPEFLIKILEHHHHHH | soluble |
| MKSVLITFDQAYYERIMALLDRLNCRGFTYLEKVQGRGSKTGDPHFGSHAWPSMCSAILTVVDDNKVDPLLDTLHKMDLQTEQLGLRAFVWNIERTI | not soluble |
| MKTAAYMIHCLTNMHVGKGDATYEVVDKCVQRDVTTGMPCIYSSSLKGALRQFFSKQGFAELNYVFGKDQSRDKKNNGNEKNEEEHSVGNFTFFQANLLAYPVQTTQEGATYILKTNKTLQDPIKELANLFSAPSNIEEMLPKETEKDLSNETLEQLPVIARNQLDNGKSENLWYEEVVPAESRFVFFVSYDDEEIFTKFDKIIQEKVIQIGANGSIGYGFCKIANVTNPFKK | soluble |
| MKTEKDKMLAGEMYIADDEELVADRVEAKRLTRLYNEAVETGDERRFTLLNQLLGSSADGKAQINPDFRCDYGYNIHVGKSFFANFNCVILDVCEVRIGDHCMFAPGVHIYTATHPLHPVERNSGKEYGKPVKIGNNVWVGGGAIINPGVSIGDNAVIASGAVVTKDVPNNVVVGGNPAKVIKTIEE | not soluble |
| MKTFKAVRFQIVNEHGRIIEYELEDGVIINKEESGTGWLLEIVISNEHYETFKEYQDNEQLLDIRVVITRPANDPALFESTVKSIKNFKTTMSIVFECHIYTLRQQYAESLLEQLIDDGLSGEELKKSFNRMMQSKPKLKDEKLEELEHHHHHH | soluble |
| MKTIGLLGGMSWESTIPYYRLINEGIKQQLGGLHSASLLLHSVDFHDIEVCQRRDEWDKAGDILAQAAHGLQQAGAEGIVLCTNTMHKIAHVIESRCSLPFLHIADATGRAIARQGLHRVALLGTRYTMEQDFYRGRLEQQFAIETIVPEADDRARINQVIFDELCQGTFTDASRHYYLQVIEQLAAQGAQGVIFGCTEIGLLVPQTQSALPVFDTTAIHAADAVSFMLSSSAPE | soluble |
| MKTLIARHKAGEHIGICSVCSAHPLVIEAALAFDRNSTRKVLIEATSNQVNQFGGYTGMTPADFREFVFAIADKVGFARERIILGGDHLGPNCWQQENVDAAMEKSVELVKAYVRAGFSKIHLDASMSCAGDPIPLAPETVAERAAVLCFAAESVATDCQREQLSYVIGTEVPVPGGEASAIQSVHITHVEDAANTLRTHQKAFIARGLTEALTRVIAIVVQPGVEFDHSNIIHYQPQEAQALAQWIENTRMVYEAHSTDYQTRTAYWELVRDHFAILKVGPALTFALREAIFALAQIEQELIAPENRSGCLAVIEEVMLDEPQYWKKYYRTGFNDSLLDIRYSLSDRIRYYWPHSRIKNSVETMMVNLQGVDIPLGMISQYLPKQFERIQSGELSAIPHQLIMDKIYDVLRAYRYGCAE | soluble |
| MKTNEVLENIKARRSVRAYTDRQVSEEDLQAILEAATFAPSGMHLETWHFTAIQNADKLAELNERIKGAFAKSDEPKLQERGHSKAYCCYYHAPTLVIVSNEPTQWWAGMDCACAIENMFLAAHSLGIGSCWINQLGTTCDDPEVREFISSLGVPENHKVYGCVALGYADPKISLREKMVKAGTVTVVR | not soluble |
| MKTRKIPLRKSVVSNEVIDKRDLLRIVKNKEGQVFIDPTGKANGRGAYIKLDNAEALEAKKKKVFNRSFSMEVEESFYDELIAYVDHKVKRRELGLE | soluble |
| MKTTLIISTYNRPEALSVCLDSVRFQTVMPDEVIVGDDGSTSETKDLIESFKKDFPVPLIHLWQEDKGFRLAMMRNKSVAAATGDYIIEIDGDIFLHNKFVEDHKRLAKPGHYLRGTRVNLGQKLTEEICKSKVNRRIYPWTIGIQNRAETAIHSTPVSNFFADRYKKNVSSGLGCNMSFWRSDFLAINGYDEFFEGWGKEDDDLTHRLQRKGCKKRSLRFAGIVYHLWHGHESMESDQKNAEYFRKNNEKNIVYCENGVSKYLKQELEHHHHHH | soluble |
| MKTVILIGALGKMGQAALTGLSKHKVITAGRSGNVDHLVDITNENSIRALYEKVGHFDAVVNTVGFCEYATFAEMTEAQWMTTVMSKMMGQINLVRIGQEYIADKGSFTLISGILNVKPIPCAIADATTSGAIDTFVKCVAYEMQRGTRINVVNPTVLTEAWDVYGDMMPGFEPVPSTLVGKAFERSVDGFINGEVLFVDALEHHHHHH | soluble |
| MKVAFVIRKDCKRCATIAKSIIELIPPDWEKIYDTEAAKFLGGVGKDITEISADIIIAIGGDGTVLRILQNAKGPVLGINMGGLGFLTEIEIDEVGSSTYKLIRGEYKINEAMKLKVYINGRRLEDCTNEAVVHTDRIARIRQFKIYVDGHFLTTIKSDGVIVATPTGSSSYSSSAGGPLLLPTVRGMVISYLAPYSSRIKPVVVPSESTVEIKIAGNDQDSLLILDGQKEYKIKSGDTVSISMSEEKARFVSFRESIYDRLRDKVIKHVVN | soluble |
| MKVAVLGAAGGIGQALALLLKTQLPSGSELSLYDIAPVTPGVAVDLSHIPTAVKIKGFSGEDATPALEGADVVLISAGVARKPGMDRSDLFNVNAGIVKNLVQQVAKTCPKACIGIITNPVNTTVAIAAEVLKKAGVYDKNKLFGVTTLDIICSNTFVAELKGKQPGEVEVPVIGGHSGVTILPLLSQVPGVSFTEQEVADLTKRIQNAGTEVVEAKAGGGSATLSMGQAAARFGLSLVRALQGEQGVVECAYVEGDGQYARFFSQPLLLGKNGVEERKSIGTLSAFEQNALEGMLDTLKKDIALGQEFVNK | soluble |
| MKVEQIYTGCLAQGAYYITSMGEAAIIDPLREITPYLERLKRDGVKLKYILETHFHADFVSGHLDLSRATGAPIVYGPTAKPGFDAIVAEDNQIFELGNVKIRVLHTPGHTMESSCFLLIDENGREAALFSGDTLFLGDVGRPDLAQKAANLTQEELAGLLYDSLYTKILPLSDDIIVYPAHGAGSACGKNMMQETVDSLGNQKRVNYALNQPGKEAFIASVIEGLLPPPAYFGGNVAMNKMGYDSIDNVMERGLSALSATDFEAIAKTSDALVLDTRAPGVFAQGFIPRSINIGLDGDFAPWVGTMIVDVKQPLLLVADPGREQEVITRLSRVGFDQVLGYLDGGFDTWNASGKEIDHVECITANEFAERFCPEESLVFDVRKESEYAAEHVEGAYSRPLAYINDWIQDIPRDRHFYLHCIGGYRSMIASSILLSRGYRNFTDIEGGFASIAQTGVPKTDYVCQSKVSKKLEHHHHHH | soluble |
| MKVGNQMNEEQLSKRLEKVASYITKNERIADIGSDHAYLPCFAVKNQTASFAIAGEVVDGPFQSAQKQVRSSGLTEQIDVRKGNGLAVIEKKDAIDTIVIAGMGGTLIRTILEEGAAKLAGVTKLILQPNIAAWQLREWSEQNNWLITSEAILREDNKVYEIMVLAPSEKPVTWTKQEIFFGPCLLKEQSAIFKSKWRHEANTWQNIIQTISNNQPVSTENQAKIRELEHKIALVEDVLK | not soluble |
| MKVGQDKVVTIRYTLQVEGEVLDQGELSYLHGHRNLIPGLEEALEGREEGEAFQAHVPAEKAYGPHDPEGVQVVPLSAFPEDAEVVPGAQFYAQDMEGNPMPLTVVAVEGEEVTVDFNHPLAGKDLDFQVEVVKVREATPEELLHGHAHPSGHHHHHH | soluble |
